US20200024330A1

Tests used:
Assay in all cases: cell-based or functional assay
[1] = biological target: HIV-1 JR-CSF Env T341A (HIV-1 isolate JR-CSF) (UniProt P20871)
[2] = biological target: Env of the clade D HIV-1 pseudoviruses of the cross-clade 162-pseudovirus panel (n = 25)
[3] = biological target: HIV-1 JR-CSF Env R315A (HIV-1 isolate JR-CSF) (UniProt P20871)
[4] = biological target: Env of the clade B HIV-1 pseudoviruses of the cross-clade 162-pseudovirus panel (n = 31)
[5] = biological target: HIV-1 JR-CSF Env Q422A (HIV-1 (isolate JR-CSF)) (UniProt P20871)
[6] = biological target: HIV-1 93UG077 envelope glycoprotein (Env) (HIV-1)
[7] = biological target: HIV-1 JR-CSF Env I326A (HIV-1 isolate JR-CSF) (UniProt P20871)
[8] = biological target: HIV-1 JR-CSF Env R327A (HIV-1 isolate JR-CSF) (UniProt P20871)
[9] = biological target: HIV-1 JR-CSF Env I414A (HIV-1 (isolate JR-CSF)) (UniProt P20871)
[10] = biological target: HIV-1 JR-CSF Env I309A (HIV-1 JR-CSF) (UniProt P20871)
[11] = biological target: HIV-1 APV17 envelope glycoprotein (Env) (HIV-1)
[12] = biological target: HIV-1 JR-CSF Env N355A (HIV-1 isolate JR-CSF) (UniProt P20871)
[13] = biological target: HIV-1 JR-CSF Env T319A (HIV-1 isolate JR-CSF) (UniProt P20871)
[14] = biological target: HIV-1 JR-CSF Env T202A (HIV-1 JR-CSF) (UniProt P20871)
[15] = biological target: HIV-1 JR-CSF Env N396A (HIV-1 (isolate JR-CSF)) (UniProt P20871)
[16] = biological target: HIV-1 JR-CSF Env R304A (HIV-1 JR-CSF) (UniProt P20871)
[17] = biological target: HIV-1 JR-CSF Env I415A (HIV-1 (isolate JR-CSF)) (UniProt P20871)
[18] = biological target: HIV-1 JR-CSF Env F210A (HIV-1 JR-CSF) (UniProt P20871)
[19] = biological target: HIV-1 JR-CSF Env I423A (HIV-1 (isolate JR-CSF)) (UniProt P20871)
[20] = biological target: HIV-1 MGRM-A-010 envelope glycoprotein (Env) (HIV-1)
[21] = biological target: HIV-1 JR-CSF Env N411A (HIV-1 (isolate JR-CSF)) (UniProt P20871)
[22] = biological target: HIV-1 JR-CSF Env Q337A (HIV-1 isolate JR-CSF) (UniProt P20871)
[23] = biological target: HIV-1 JR-CSF Env D417A (HIV-1 (isolate JR-CSF)) (UniProt P20871)
[24] = biological target: HIV-1 JR-CSF Env R350A (HIV-1 isolate JR-CSF) (UniProt P20871)
[25] = biological target: HIV-1 JR-CSF Env S387A (HIV-1 (isolate JR-CSF)) (UniProt P20871)
[26] = biological target: HIV-1 MGRM-C-028 envelope glycoprotein (Env) (HIV-1)
[27] = biological target: HIV-1 JR-CSF Env I307A (HIV-1 JR-CSF) (UniProt P20871)
[28] = biological target: HIV-1 JR-CSF Env K305A (HIV-1 JR-CSF) (UniProt P20871)
[29] = biological target: HIV-1 JR-CSF Env H330A (HIV-1 isolate JR-CSF) (UniProt P20871)
[30] = biological target: HIV-1 JR-CSF Env V292A (HIV-1 JR-CSF) (UniProt P20871)
[31] = biological target: HIV-1 MGRM-C-026 envelope glycoprotein (Env) (HIV-1)
[32] = biological target: HIV-1 APV6 envelope glycoprotein (Env) (HIV-1)
[33] = biological target: Env of the clade C HIV-1 pseudoviruses of the cross-clade 162-pseudovirus panel (n = 27)
[34] = biological target: HIV-1 JR-CSF Env S334A (HIV-1 isolate JR-CSF) (UniProt P20871)
[35] = biological target: HIV-1 JR-CSF Env W395A (HIV-1 (isolate JR-CSF)) (UniProt P20871)
[36] = biological target: HIV-1 JR-CSF Env S393A (HIV-1 (isolate JR-CSF)) (UniProt P20871)
[37] = biological target: HIV-1 JR-CSF Env L416A (HIV-1 (isolate JR-CSF)) (UniProt P20871)
[38] = biological target: HIV-1 Env of isolate MGRM-A-013 (HIV-1)
[39] = biological target: HIV-1 Env of isolate 92WR020 (HIV-1)
[40] = biological target: HIV-1 Env of isolate MGRM-A-012 (HIV-1)
[41] = biological target: HIV-1 Env of isolate 93UG077 (HIV-1)
[42] = biological target: HIV-1 Env of isolate 92WR024 (HIV-1)

Binder	Fold IC50 increase relative to wild-type [1] [fold]	Median IC50 against viruses neutralized with an IC50 <50 µg/ml [2] [µg/mL]	Fold IC50 increase relative to wild-type [3] [fold]	Median IC50 against viruses neutralized with an IC50 <50 µg/ml [4] [µg/mL]	Fold IC50 increase relative to wild-type [5] [fold]	Fold IC50 increase relative to wild-type [7] [fold]	Fold IC50 increase relative to wild-type [8] [fold]	Fold IC50 increase relative to wild-type [9] [fold]	Fold IC50 increase relative to wild-type [10] [fold]	Fold IC50 increase relative to wild-type [12] [fold]	Fold IC50 increase relative to wild-type [13] [fold]	Fold IC50 increase relative to wild-type [14] [fold]	Fold IC50 increase relative to wild-type [15] [fold]	Fold IC50 increase relative to wild-type [16] [fold]	Fold IC50 increase relative to wild-type [17] [fold]	Fold IC50 increase relative to wild-type [18] [fold]	Fold IC50 increase relative to wild-type [19] [fold]	Fold IC50 increase relative to wild-type [21] [fold]	Fold IC50 increase relative to wild-type [22] [fold]	Fold IC50 increase relative to wild-type [23] [fold]	also measured
PGT-135 (antibody, V domains shown) VH: QLQMQESGPGLVKPSETLSLSCTVSGDSIRGGEWGDKDYHWGWVRHSAGKGLEWIGSIHWRGTTHYKESLRRRVSMSIDTSRNWFSLRLASVTAADTAVYFCARHRHHDVFMLVPIAGWFDVWGPGVQVTVSS VL: EIVMTQSPDTLSVSPGETVTLSCRASQNINKNLAWYQYKPGQSPRLVIFETYSKIAAFPARFVASGSGTEFTLTINNMQSEDVAVYYCQQYEEWPRTFGQGTKVDIK	0.6	1.09	1.8	0.15	0.8	1.2	0.67	1.2	0.3	0.8	0.4	1.8	1	0.7	5	1.3	0.1	0.2	2.1	5	IC50 neutralization [6]: > 10 µg/mL; IC50 neutralization [11]: > 10 µg/mL; IC50 neutralization [20]: > 10 µg/mL; Fold IC50 increase relative to wild-type [24]: 0.9 fold; Fold IC50 increase relative to wild-type [25]: 0.6 fold; IC50 neutralization [26]: 2.16 µg/mL; Fold IC50 increase relative to wild-type [27]: 0.3 fold; Fold IC50 increase relative to wild-type [28]: 0.2 fold; Fold IC50 increase relative to wild-type [29]: > 250 fold; Fold IC50 increase relative to wild-type [30]: 2 fold; IC50 neutralization [31]: 0.0123 µg/mL; IC50 neutralization [32]: > 10 µg/mL; Median IC50 against viruses neutralized with an IC50 <50 µg/ml [33]: 0.05 µg/mL; Fold IC50 increase relative to wild-type [34]: > 30 fold; Fold IC50 increase relative to wild-type [35]: 0.6 fold; Fold IC50 increase relative to wild-type [36]: 0.9 fold; Fold IC50 increase relative to wild-type [37]: 1.2 fold
PGT-127 (antibody, V domains shown) VH: QPQLQESGPGLVEASETLSLTCTVSGDSTGRCNYFWGWVRQPPGKGLEWIGSLSHCRSYYNTDWTYHNPSLKSRLTISLDTPKNQVFLRLTSVTAADTATYYCARFGGEVLVYRDWPKPAWVDLWGRGTLVVTVS VL: QSALTQPPSASGSPGQSITISCTGTSNNFVSWYQQYPGKAPKLVIYEVNKRPSGVPDRFSGSKSGSTASLTVSGLQADDEGVYYCSSLVGNWDVIFGGGTKLTVL	1.7	0.49	0.3	0.06	0.1	3.5	1.8	2.2	6	1.4	1	1.8	2.4	0.4	2.1	0.8	0.5	0.8	0.5	0.4	IC50 (µg/mL), pseudovirus neutralization [38]: 0.029 µg/mL; IC50 (µg/mL), pseudovirus neutralization [39]: 0.01 µg/mL; IC50 (µg/mL), pseudovirus neutralization [40]: 0.105 µg/mL; Fold IC50 increase relative to wild-type [24]: 1.1 fold; Fold IC50 increase relative to wild-type [25]: 1 fold; IC50 (µg/mL), pseudovirus neutralization [41]: 0.055 µg/mL; Fold IC50 increase relative to wild-type [27]: 10.2 fold; Fold IC50 increase relative to wild-type [28]: 2.6 fold; Fold IC50 increase relative to wild-type [29]: 0.5 fold; Fold IC50 increase relative to wild-type [30]: 0.9 fold; Median IC50 against viruses neutralized with an IC50 <50 µg/ml [33]: 0.55 µg/mL; Fold IC50 increase relative to wild-type [34]: > 500 fold; Fold IC50 increase relative to wild-type [35]: 1.6 fold; Fold IC50 increase relative to wild-type [36]: 1.2 fold; IC50 (µg/mL), pseudovirus neutralization [42]: > 50 µg/mL; Fold IC50 increase relative to wild-type [37]: 1 fold
